Assay results taken from article PMC4485828 (Oncoimmunology, 2015).

Legend:
SEC [1] = target: the molecule itself; assay: SEC
SEC [2] = assay: SEC

B1: GD2xCD3-HDD bispecific antibody dimer (GD2xCD3 tsc-BsAb with the HNF1α dimerization domain at the C-terminus) (bispecific antibody)
chain: QVQLQQSGPELVKPGASVKISCKTSGYKFTEYTMHWVKQSHGKCLEWIGGINPNNGGTNYNQKFKGKATLTVDKSSSTAYMELRSLTSEDSAVYYCARDTTVPYAYWGQGTTVTVSSGGGGSGGGGSGGGGSDIELTQSPAIMSASPGEKVTMTCSASSSISYMHWYQQKPGTSPKRWIYDTSKLASSVPARFSGSGSGTSYSLTISSMEAEDAATYYCHQRSSYPLTFGCGTKLEIKRASTKGPGGGGSGGGGSGGGGSQVQLVQSGGGVVQPGRSLRLSCKASGYTFTRYTMHWVRQAPGKGLEWIGYINPSRGYTNYNQKFKDRFTISRDNSKNTAFLQMDSLRPEDTGVYFCARYYDDHYCLDYWGQGTPVTVSSGGGGSGGGGSGGGGSDIQMTQSPSSLSASVGDRVTITCSASSSVSYMNWYQQTPGKAPKRWIYDTSKLASGVPSRFSGSGSGTDYTFTISSLQPEDIATYYCQQWSSNPFTFGQGTKLQITRTPLGDTTHTSGMVSKLSQLQTELLAALLESGLSKEALIQALGEGSGGAP
stoichiometry N (SEC [1]): 2 | percent dimeric (purity by HPLC-SEC) (SEC [2]): 97%
